# According to US7138103:
# Tests used:
# [1] = target: mono HSG peptide (peptide containing a single HSG substituent and a thiol); experiment: BIAcore, mono HSG peptide coupled by its thiol to a CM-5 chip
# [2] = target: Ac-Lys(DTPA)-Tyr-Lys(DTPA)-Lys(Tscg-Cys)-NH2 (IMP 192); experiment: in vivo, GW-39 tumor in nude mice, calculated from biodistribution assuming one peptide per bsAb; 3 h after peptide
# [3] = target: carcinoembryonic antigen (CEA) (UniProt P06731); experiment: analytical size exclusion HPLC, radioiodinated bsAb with 10-20× molar excess of CEA
# [4] = target: Ac-Lys(DTPA)-Tyr-Lys(DTPA)-Lys(Tscg-Cys)-NH2 (IMP 192); experiment: in vivo, GW-39 tumor in nude mice, calculated from biodistribution assuming one peptide per bsAb; 30 min after peptide
# [5] = target: Ac-Lys(DTPA)-Tyr-Lys(DTPA)-Lys(Tscg-Cys)-NH2 (IMP 192); experiment: in vivo, GW-39 tumor in nude mice, calculated from biodistribution assuming one peptide per bsAb; 24 h after peptide
# [6] = target: Ac-Lys(DTPA)-Tyr-Lys(DTPA)-Lys(Tscg-Cys)-NH2 (IMP 192); experiment: in vivo, GW-39 tumor in nude mice, calculated from biodistribution assuming one peptide per bsAb; 1 h after peptide
# carcinoembryonic antigen (CEA), sequence (P06731 35-685 limits assumed): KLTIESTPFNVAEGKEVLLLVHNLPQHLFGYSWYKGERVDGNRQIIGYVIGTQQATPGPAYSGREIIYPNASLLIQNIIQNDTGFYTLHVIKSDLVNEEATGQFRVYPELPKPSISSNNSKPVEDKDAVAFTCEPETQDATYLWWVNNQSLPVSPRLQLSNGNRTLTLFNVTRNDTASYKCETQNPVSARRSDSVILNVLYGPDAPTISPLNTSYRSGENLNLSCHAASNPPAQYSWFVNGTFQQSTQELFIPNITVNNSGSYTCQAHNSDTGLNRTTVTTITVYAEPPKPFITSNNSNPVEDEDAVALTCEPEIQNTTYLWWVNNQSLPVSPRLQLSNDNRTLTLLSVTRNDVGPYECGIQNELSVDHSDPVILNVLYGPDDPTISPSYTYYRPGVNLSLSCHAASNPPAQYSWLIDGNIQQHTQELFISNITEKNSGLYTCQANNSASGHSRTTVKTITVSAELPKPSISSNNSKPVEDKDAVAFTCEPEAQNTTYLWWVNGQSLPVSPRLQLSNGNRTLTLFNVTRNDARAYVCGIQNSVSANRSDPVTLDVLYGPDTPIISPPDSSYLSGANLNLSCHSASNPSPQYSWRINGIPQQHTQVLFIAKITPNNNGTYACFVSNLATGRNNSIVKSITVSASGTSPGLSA
Substance,Kd [1],% saturation on hMN-14 × 734 (available DTPA binding sites on the tumor bound bsAb filled with 99m-Tc-IMP-192) [2],percent of bsAb bound [3],% saturation on hMN-14 × 734 (available DTPA binding sites on the tumor bound bsAb filled with 99m-Tc-IMP-192) [4],% saturation on hMN-14 × 734 (available DTPA binding sites on the tumor bound bsAb filled with 99m-Tc-IMP-192) [5],% saturation on hMN-14 × 734 (available DTPA binding sites on the tumor bound bsAb filled with 99m-Tc-IMP-192) [6]
hMN-14 × m679 F(ab′)2 bsMAb (bispecific antibody),1.5 nM,–,–,–,–,–
hMN-14 × 734 (Fab × Fab) bsAb (bispecific antibody),–,25%,90%,25.4%,28%,25.8%
